Molecular target: Cynomolgus monkey Ang2 C-terminal domain (Lys274-Phe495) (cynomolgus monkey)
Assay: ForteBio BLI, antibody on AHQ sensor, 100 nM antigen, 1:1 model

Chain of Cynomolgus monkey Ang2 C-terminal domain (Lys274-Phe495) (cynomolgus monkey) (chain, as listed by the source, form in doubt): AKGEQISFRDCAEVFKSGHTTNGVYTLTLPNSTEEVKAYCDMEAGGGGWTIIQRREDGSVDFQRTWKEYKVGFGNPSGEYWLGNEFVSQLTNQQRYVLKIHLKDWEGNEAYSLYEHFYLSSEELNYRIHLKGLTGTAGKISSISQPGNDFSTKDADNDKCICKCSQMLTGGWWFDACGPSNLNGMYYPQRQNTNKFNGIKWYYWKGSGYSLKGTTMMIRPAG

Binder | Kd [µM]
chimeric antibody 81H10 (antibody, human IgG1, kappa, V domains shown) VH: EVKLEESGGGLVQPGGSMKLSCVASGFTFSNYWMNWVRQSPEKGLEWVAEIRLKSNNYATHYAESVKGRFTISRDVSKSSVYLQMNNLRTEDTGIYYCTDTAPFAYWGQGTLVTVSA VL: DIVMTQSHKFMSTSVGDRVSITCKASQDVGTDVAWYQQKPGQSPKLLIYWASTRHTGVPDRFTGSGSGTDFTLTISNVQSEDLSDYFCQQYSSYPLTFGGGTKLEIKR | 0.0443
humanized antibody hz81H10.4 (antibody, human IgG1, kappa, V domains shown) VH: EVQLVESGGGLVKPGGSLRLSCAASGFTFSNYWMNWVRQAPGKGLEWVAEIRLKSNNYATHYAESVKGRFTISRDVSKNTVYLQMNSLKTEDTAVYYCTDTAPFAYWGQGTLVTVSS VL: DIQMTQSPSSLSASVGDRVTITCKASQDVGTDVAWYQQKPGKAPKLLIYWASTRHTGVPSRFSGSGSGTDFTLTISSLQPEDFATYYCQQYSSYPLTFGGGTKVEIKR | 0.0883
